The source of these data is patent publication US20210261685A1 (Alector, published 2021).

For experiment [1], the target named is T1, Recombinant human MerTK human Fc Chimera protein (R&D systems, Cat #391-MR-100) (human, UniProt Q12866 26-499, limits assumed).
T1 construct: Bought; also called recombinant human MerTK protein; MerTK-Fc
T1 sequence: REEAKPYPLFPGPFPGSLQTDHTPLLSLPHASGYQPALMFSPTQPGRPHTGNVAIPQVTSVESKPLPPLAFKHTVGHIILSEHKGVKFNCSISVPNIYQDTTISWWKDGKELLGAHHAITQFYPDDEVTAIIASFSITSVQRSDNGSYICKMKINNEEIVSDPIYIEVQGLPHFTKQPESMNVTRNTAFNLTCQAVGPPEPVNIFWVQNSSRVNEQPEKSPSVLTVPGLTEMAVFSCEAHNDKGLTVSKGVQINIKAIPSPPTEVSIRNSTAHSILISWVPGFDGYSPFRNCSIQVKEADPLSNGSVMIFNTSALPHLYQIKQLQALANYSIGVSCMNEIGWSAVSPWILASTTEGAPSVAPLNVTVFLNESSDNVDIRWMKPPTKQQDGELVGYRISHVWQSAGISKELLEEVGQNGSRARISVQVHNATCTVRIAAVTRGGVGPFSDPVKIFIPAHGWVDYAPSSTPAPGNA
The experiment in a line: competition ELISA, His-Gas6 on captured MerTK-Fc. In a few lines:
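MerTK-Fc (2 μg/ml) captured on plate-bound anti-human IgG was exposed to anti-MerTK antibodies (66.6 nM-4 pM final) together with His-Gas6 at 3 μg/ml or His-ProS at 20 μg/ml for 1 h. Bound ligand was detected with HRP-anti-His and TMB. IC50 (nM) was derived from OD450 dose-response curves.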
Background: In an ELISA, binding on a coated surface is turned into a signal by an enzyme label.

Experiment [2] deals with T2, human MerTK endogenously expressed on cells (SK-MEL-5 cells; human macrophages) (human, UniProt Q12866 21-999).
T2 construct: also called MerTK on SK-MEL-5
T2 sequence: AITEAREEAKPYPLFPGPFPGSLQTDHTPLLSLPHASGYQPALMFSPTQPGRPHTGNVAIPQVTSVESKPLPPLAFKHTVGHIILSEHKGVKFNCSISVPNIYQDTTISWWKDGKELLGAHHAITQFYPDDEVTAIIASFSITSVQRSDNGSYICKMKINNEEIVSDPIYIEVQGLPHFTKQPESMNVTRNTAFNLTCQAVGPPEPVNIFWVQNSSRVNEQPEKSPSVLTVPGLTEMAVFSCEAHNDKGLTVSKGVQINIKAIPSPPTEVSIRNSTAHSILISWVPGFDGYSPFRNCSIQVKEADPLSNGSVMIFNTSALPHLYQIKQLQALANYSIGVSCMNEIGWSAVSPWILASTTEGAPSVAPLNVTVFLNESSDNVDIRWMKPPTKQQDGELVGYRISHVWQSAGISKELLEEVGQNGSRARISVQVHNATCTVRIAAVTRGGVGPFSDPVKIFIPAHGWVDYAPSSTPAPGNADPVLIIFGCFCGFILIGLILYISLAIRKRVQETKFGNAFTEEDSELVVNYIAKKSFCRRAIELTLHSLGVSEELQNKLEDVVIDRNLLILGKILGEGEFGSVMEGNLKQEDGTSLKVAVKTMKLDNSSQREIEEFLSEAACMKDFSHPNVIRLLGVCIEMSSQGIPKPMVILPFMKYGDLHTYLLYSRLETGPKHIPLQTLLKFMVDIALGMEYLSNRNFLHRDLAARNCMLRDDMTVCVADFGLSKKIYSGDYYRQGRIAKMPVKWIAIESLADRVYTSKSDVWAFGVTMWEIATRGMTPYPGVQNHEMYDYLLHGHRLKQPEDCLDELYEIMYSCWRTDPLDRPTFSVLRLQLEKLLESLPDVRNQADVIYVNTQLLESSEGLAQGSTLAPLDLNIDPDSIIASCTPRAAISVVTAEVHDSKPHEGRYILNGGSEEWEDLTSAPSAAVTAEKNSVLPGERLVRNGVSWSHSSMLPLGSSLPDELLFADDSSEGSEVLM
The experiment in a line: flow cytometry on SK-MEL-5 cells, Prism fit. The method in brief:
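SK-MEL-5 cells (endogenous human MerTK) or CHO cells overexpressing mouse MerTK, 40,000/well, incubated with antibody titrated 66.6 nM to 4 pM for 30 min on ice. Bound antibody detected with APC anti-human kappa plus viability dye; MFI by flow cytometry, K value fitted from titration.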
A general note: A flow cytometer gives signals particle by particle.

The target of experiment [3] is T2, human MerTK endogenously expressed on …. The experiment in a line: cell-based or functional assay.

B1: MTK-16 (antibody, human IgG1, V domains shown)
VH: LIQLVQSGPELKKPGETVKISCKASGYTFTNHGMNWVKQDPGKGLKWMGWINTYTGEPTYADDFKGRFVFSMETSASAAFLQINNLKNEDTATYFCARKGVTAARYFDYWGQGTTLTVSS
VL: DIVMTQSPKFMSTSVGDRVSITCKASQNVRTAVAWYKKKPGQSPKALINLASNRHTGVPDRFTGSGSGTDFTLTISNVQSEDLADYFCLQHWNYPLTFGGGTKLEIK
Regarding B1, the half-inhibitory concentration (IC50) (in general, the concentration needed to halve the response being measured) in experiment [1] came out at 6.32 nM. Further, the Kd – broadly, the concentration at which binding is half-saturated – in experiment [2] is 1.66 nM. The “Gas6-mediated pAKT activity, average IC50, human M2c macrophages” value in experiment [3] was 7.74 nM.
